{
  "source": "patent US20210170043A1",
  "about": "“DC-SIGN ANTIBODY CONJUGATES COMPRISING STING AGONISTS” (NOVARTIS AG, priority 2018, published 2021)",
  "key": {"[1]": {"test_system": "CD11c+ dendritic cells of Tg+ mice", "test": "Dendritic cell activation in DC-SIGN Tg+ mice (spleen, flow cytometry)", "type": "in vivo, mouse", "protocol": "(§1) Spleens were harvested 24 hours post dose and analyzed by flow cytometry to look at CD11c+ dendritic cells."}, "M2 macrophages": {"test_system": "M2 macrophages", "test": "Activation of human M2 macrophages (M2 moMacs) in vitro, flow cytometry", "type": "cell-based", "conditions": "24 hours incubation", "protocol": "Primary human monocytes were isolated from a leukapheresis using magnetic bead selection and frozen for storage in liquid nitrogen. For monocyte DC (moDC) differentiation, cells were thawed and incubated in media containing GM-CSF and IL-4 for 7 days. For M2 macrophages (M2 moMacs), cells were thawed and incubated for 6 days with M-CSF containing media and then polarized with the addition of IL-4 for 24 hours. After the differentiation process for both moDC and moMacs, media was washed off and replaced with fresh media containing isotype control (DAPA version of Trastuzumab) C1, or DC-SIGN antibody C1 conjugates. Free T1-1 compound was used as a control. 24 hours after incubation with indicated compounds, cells were evaluated by flow cytometry for activation.\nPeripheral blood Leukopaks from normal human donors were obtained from HemaCare. […]\nHuman CD14+ monocytes were isolated and frozen as described. […] Cells were counted and plated at 40,000-80,000 cells per well in a 384 well flat bottom tissue culture plate (Greiner). […]\n24 hours after activation with compounds, cells were evaluated by flow cytometry according to the described protocol using antibody clones described in flow cytometry protocol section. DC-SIGN+CD11c+ HLA-DR+ cells were identified and assessed for CD86 expression and levels of DC-SIGN."}, "[2]": {"test_system": "transgenic mice expressing human DC-SIGN gene (Tg+)", "test": "Plasma cytokine production in transgenic mice expressing human DC-SIGN (ELISA / MesoScaleDiscovery)", "type": "in vivo, mouse", "protocol": "FIGS. 5A-5E show exemplary data on DC-SIGN immunoconjugates inducing cytokine production in Tg+ mice. […] Plasma levels were analyzed by ELISA (IP-10 and IFNβ) or MesoScaleDiscovery Multiplex analysis (all other analytes). **** denotes p value of <0.0001 using an ANOVA with Tukey's test compared to Tg-2B2 hlgG1 DAPA C1 group.\nMice were bled 6 hours after dosing to collect plasma for analysis of circulating cytokine levels."}, "[3]": {"test_system": "transgenic mice expressing human DC-SIGN gene (Tg+)", "test": "Splenic dendritic cell activation in human DC-SIGN transgenic mice, flow cytometry", "type": "in vivo, mouse", "conditions": "24 hours post dose", "protocol": "Blood was collected at 6 hours post dose to analyze plasma cytokine and chemokine levels and spleens were analyzed at 24 hours post dose to look at dendritic cell activation.\nas §1\nTumors and/or spleens were extracted at the timepoints indicated from animals. Spleens were processed into a single cell suspension using glass slides and passed through a 100 micron mesh filter. Spleens were lysed in 1 mL of ACK lysis buffer (Life Technologies) for 5 minutes at room temperature. […]\n1-2 million cells for each sample were then stained with a cocktail of antibodies to determine impact of the treatments on dendritic cells, myeloid cells and T cells. […] After staining, cells were evaluated on the BD LSRFortessa™ cell analyzer (BD Biosciences, San Jose, Calif.). […]"}},
  "data": [
    {"molecule": "2B2 (DAPA) C1 (conjugate) heavy: QVQLVQSGAEVKKPGASVKVSCKASGYTFTNYGINWVRQAPGQRLEWMGYIYIGNDYTEYNERFKGRVTITSDTSASTAYMELSSLRSEDTAVYYCARLYYGSSLYSYAMDYWGQGTTVTVSSASTKGPSVFPLAPSSKSTSGGTAALGCLVKDYFPCPVTVSWNSGALTSGVHTFPAVLQSSGLYSLSSVVTVPSSSLGTQTYICNVNHKPSNTKVDKRVEPKSCDKTHTCPPCPAPELLGGPSVFLFPPKPKDTLMISRTPEVTCVVVAVSHEDPEVKFNWYVDGVEVHNAKTKPREEQYNSTYRVVSVLTVLHQDWLNGKEYKCKVSNKALAAPIEKTISKAKGQPREPQVYTLPPSREEMTKNQVSLTCLVKGFYPCDIAVEWESNGQPENNYKTTPPVLDSDGSFFLYSKLTVDKSRWQQGNVFSCSVMHEALHNHYTQKSLSLSPGK light: DIVMTQSPLSLPVTPGEPASISCRSSKSLLHSSGNTYLYWFLQKPGQSPQLLISRMSNLASGVPDRFSGSGSGTDFTLKISRVEAEDVGVYYCMQHLEYPYTFGGGTKVEIKRTVAAPSVFIFPPSDEQLKSGTASVVCLLNNFYPREAKVQWKVDNALQSGNSQESVTEQDSKDSTYSLSSTLTLSKADYEKHKVYACEVTHQGLSSPVTKSFNRGEC", "values": [
      {"measurement": "CD80 upregulation on dendritic cells (DC activation)", "setting": "[1]", "value": "significantly upregulated"},
      {"measurement": "CD86 upregulation on dendritic cells (DC activation)", "setting": "[1]", "value": "significantly upregulated"},
      {"measurement": "downregulation of DC-SIGN on macrophages", "setting": "M2 macrophages", "value": "induced downregulation of DC-SIGN"},
      {"measurement": "macrophage activation as measured by CD86 upregulation", "setting": "M2 macrophages", "value": "induced monocyte dendritic cell and macrophage activation"},
      {"measurement": "circulating plasma IL-12p70", "setting": "[2]", "value": "increased"},
      {"measurement": "circulating plasma IP-10", "setting": "[2]", "value": "increased"},
      {"measurement": "circulating plasma TNFα", "setting": "[2]", "value": "increased"},
      {"measurement": "CD86 upregulation on splenic dendritic cells", "setting": "[3]; 1 mg/kg i.v. (Fab2 1.33 mg/kg, Fab 1.3 mg/kg)", "value": "significantly upregulated"},
      {"measurement": "CD80 upregulation on splenic dendritic cells", "setting": "[3]; 1 mg/kg i.v.", "value": "significantly upregulated"}
    ]}
  ]
}
